The values below come from paper PMC7297996, “Alzheimer’s disease-related dysregulation of mRNA translation causes key pathological features with ageing” (Translational Psychiatry, 2020).

This data set concerns the molecule itself. The experiment in a line: native gel or EMSA; NativePAGE (Invitrogen) of the synthetic Aβ1-42 preparation, detected with antibody 4G8; guanidine hydrochloride (1:1) used to break down oligomers. (In general: A gel shift assay detects complexes by their altered migration in electrophoresis.)

B1: synthetic rat Aβ1-42 peptide (peptide, UniProt P08592 672-713, looked up)
peptide: DAEFGHDSGFEVRHQKLVFFAEDVGSNKGAIIGLMVGGVVIA
notes: amyloid-beta 1-42, cut product of the amyloid precursor protein (APP), rat; Oligomer preparation: 100 uM stock in 200 mM HEPES pH 8.5, agitated for 30 min at room temperature; also called amyloid-β 1-42; rodent Aβ_(1-42); source: synthetic peptide; bought: Calbiochem
For the protein B1, the binding result was “binds”.
